The values that follow come from patent publication US20230312702A1 (KINDRED BIOSCIENCES, published 2023).

Where a chain is given by its changes, count along the chain named. Where “and” joins values, the source holds several entries; their conditions need not be identical. Equal values may be shown once.

Test [1] deals with canine FcRn with a poly-His tag and canine B2M heterodimer complex (canine). Description: SPR (Biacore T200) at pH 6.0, biotinylated FcRn/B2M immobilised, Fc as analyte. Background: SPR reads the build-up and loss of mass on a sensor chip optically.
Chain of canine FcRn with a poly-His tag and canine B2M heterodimer complex (canine) (chain, as listed by the source limits assumed, form in doubt, chain 1 of 2): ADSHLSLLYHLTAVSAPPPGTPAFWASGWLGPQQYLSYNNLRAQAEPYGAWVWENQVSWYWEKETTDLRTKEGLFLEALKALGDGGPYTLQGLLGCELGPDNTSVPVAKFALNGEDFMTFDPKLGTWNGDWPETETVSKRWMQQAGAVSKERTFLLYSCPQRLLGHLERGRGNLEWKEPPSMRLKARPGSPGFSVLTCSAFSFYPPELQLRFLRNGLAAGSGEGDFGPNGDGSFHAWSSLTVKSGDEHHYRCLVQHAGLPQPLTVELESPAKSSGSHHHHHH
Chain of canine FcRn with a poly-His tag and canine B2M heterodimer complex (canine) (b2m, as listed by the source limits assumed, form in doubt, chain 2 of 2): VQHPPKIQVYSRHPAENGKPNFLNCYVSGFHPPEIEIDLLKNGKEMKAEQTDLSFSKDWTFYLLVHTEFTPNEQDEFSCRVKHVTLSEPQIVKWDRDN
In test [2] the target is equine IL31 fused to human Fc (equine; human). Put plainly: biolayer interferometry, biotinylated equine IL31 on the sensor, preliminary; biolayer interferometry, biotinylated equine IL31 on the sensor, preliminary; upper end of the range. (In BLI a coated tip is dipped into the sample, and binding shifts an interference pattern.)
Chain of equine IL31 fused to human Fc (equine; human) (chain, as listed by the source limits assumed, form in doubt): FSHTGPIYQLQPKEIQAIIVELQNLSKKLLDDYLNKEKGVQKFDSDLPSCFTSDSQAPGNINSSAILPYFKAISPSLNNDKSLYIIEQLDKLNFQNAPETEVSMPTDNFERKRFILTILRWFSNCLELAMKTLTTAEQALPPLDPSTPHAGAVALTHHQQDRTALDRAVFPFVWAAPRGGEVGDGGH
The target of test [3] is T1, Canine IL31 with C-terminal polyHis tag (canine, biotinylated at primary amine groups (NHS-LC-Biotin) or at glycan groups (Biotin-LC-Hydrazide)).
T1 construct: the protein was collected from the supernatant of 293 or CHO-S cells; also called biotinylated canine IL31; canine IL31 (amine-conjugated-biotin); not shown: C-terminal poly-His tag
T1 chain: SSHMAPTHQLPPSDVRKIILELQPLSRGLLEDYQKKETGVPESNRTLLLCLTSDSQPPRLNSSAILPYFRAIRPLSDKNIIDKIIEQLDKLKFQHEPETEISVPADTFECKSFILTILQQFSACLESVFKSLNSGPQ
Put plainly: biolayer interferometry (Octet), canine IL31 (amine-conjugated-biotin) on streptavidin tips, 2:1 fit. How it is done:
(§1) The binding analysis was performed using a biosensor Octet as follows. Briefly, canine IL31 was biotinylated at primary amine groups using EZ-Link™ NHS-LC-Biotin (Thermo Scientific, Catalog No. 21336) or at glycan groups using EZ-Link™ Biotin-LC-Hydrazide (ThermoFisher Scientific, Catalog No. 21340) according to the manufacturer's instructions. The free unreacted biotin was removed from biotinylated IL31 by extensive dialysis. Biotinylated canine IL31 was captured on streptavidin sensor tips. The association of four different concentrations (400, 200, 66.6, and 33 nM) of chimeric and caninized M14 antibody and human and canine IL31 (amine-conjugated-biotin) and the association of 100 nM of caninized M14 antibody and canine IL31 (glycan-conjugated-biotin) was monitored for ninety seconds. Dissociation was monitored for 600 seconds. A buffer only blank curve was subtracted to correct for any drift. The data were fit to a 2:1 binding model using ForteBio™ data analysis software to determine the kₒₙ, koff, and the Kd. The buffer for dilutions and all binding steps was: 20 mM phosphate, 150 mM NaCl, pH 7.2.
(§2) Canine IL31 with C-terminal polyHis tag was expressed and purified from CHO-S cells. Human IL31 was obtained from Sino Biological and Streptavidin biosensors was obtained from ForteBio (Cat. #18-509).

The target of test [4] is T1, Canine IL31 with C-terminal polyHis tag. Put plainly: biolayer interferometry (Octet), canine IL31 (glycan-conjugated-biotin) on streptavidin tips, 100 nM antibody. How it is done: as §1, §2
A further test has as its target T2, GST_(S98-S144).
T2 construct: also called 34.5KDa
T2 GST fusion protein: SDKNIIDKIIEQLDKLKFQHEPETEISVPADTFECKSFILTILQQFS
Put plainly: immunoblot of GST-canine IL31 fusions expressed in E. coli, membrane probed with chimeric M14; anti-GST blot in Fig. 5B. The source says:
(§3) To identify the canine IL31 epitope recognized by M14, multiple GST canine IL31 fragment fusion molecules were generated and proteins were expressed intracellularly in E. coli. After the GST fusion proteins were transferred to a membrane, chimeric M14 was used to probe the membrane. A positive signal resulted when the IL31 fragment contained the epitope.

For the next test, the target named is T3, GST_(A127-Q159).
T3 construct: also called 31.1KDa
T3 GST fusion protein: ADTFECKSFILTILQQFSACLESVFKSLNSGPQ
The description is as above.
Text: as §3

B1: wild-type canine IgG-B Fc polypeptide (protein, not shown: small tags and cut ends)
chain: PAPEMLGGPSVFIFPPKPKDTLLIARTPEVTCVVVDLDPEDPEVQISWFVDGKQMQTAKTQPREEQFNGTYRVVSVLPIGHQDWLKGKQFTCKVNNKALPSPIERTISKARGQAHQPSVYVLPPSREELSKNTVSLTCLIKDFFPPDIDVEWQSNGQQEPESKYRTTPPQLDEDGSYFLYSKLSVDKSRWQRGDTFICAVMHEALHNHYTQESLSHSPGK
On to B1, for which, in test [1], the koff – broadly, a measure of how fast the partners let go of each other – turned out to be 0.122 s⁻¹.

B2: variant canine IgG-B polypeptide L(23)S (protein, not shown: small tags and cut ends)
chain: B1 chain with L23S
B2 yielded an off-rate (koff) in test [1] of 0.241 s⁻¹. This koff lies about 2-fold higher than the previous one.

B3: variant canine IgG-B Fc polypeptide L(23)Y (protein, not shown: small tags and cut ends)
chain: B1 chain with L23Y
Turning to B3, in test [1], the koff was 0.0138 s⁻¹.

B4: variant canine IgG-B Fc polypeptide L(23)F (protein, not shown: small tags and cut ends)
chain: B1 chain with L23F
With B4, the koff in test [1] is 0.0631 s⁻¹ and 0.0847 s⁻¹.

B5: variant canine IgG-B Fc polypeptide L(23)M (protein, not shown: small tags and cut ends)
chain: B1 chain with L23M
In test [1], B5 gave a koff of 0.126 s⁻¹.

B6: monoclonal antibody M14 (mouse antibody clone M14) (antibody, V domains shown)
VH: EVQLQESGPSLVKPSQTLSLTCSVTGDSITSGYWNWIRKFPGNKLEYMGYISYSGITDYNPSLKSRISITRDTSKNQYYLQLNSVTTEDTATYYCARYGNYGYAMDYWGQGTSVTVSS
VL: DIVLTQSPASLAVSLGQRATISCRASESVDTYGNSFMHWYQQKSGQSPKLLIYRASNLESGIPARFGGSGSRTDFTLTIDPVEADDVATYYCQQSYEDPWTFGGGTKLEIK
Turning to B6, in test [2], the Kd – broadly, the constant that tells how readily two partners part at equilibrium – is below 50 nM.

B7: caninized M14 IgG-B (antibody, V domains shown)
VH: B6 VH with Q5V, S15G, Q16G, T17S, S19R, S68T, T70S, S113L
VL: DIVMTQSPASLSVSLGQRATISCRASESVDTYGNSFMHWYQQKPGQSPKLLIYRASNLESGIPARFGGSGSGTDFTLTIDPVQADDVATYYCQQSYEDPWTFGGGTKLEIKR
notes: Caninized M14 on canine IgG-B with canine light chain constant region; also called caninized M14 antibody
As for B7, the Kd was below 0.01 nM in test [3] and below 0.001 nM in test [4]. The koff in test [4] is below 1e-07 s⁻¹.

B8: chimeric M14 (murine M14 VH and VL fused to canine IgG-B constant heavy chain and canine constant light chain) (antibody, V domains shown)
VH: B6 VH
VL: B7 VL with M4L, S12A, P44S, G72R, Q83E
notes: expressed in CHO cells, Protein A purified; also called chimeric M14 antibody
For the molecule B8, the binding result in the test with GST_(S98-S144) and with GST_(A127-Q159) was “no binding” in each case.
